Reference: PMC2756588

T1: Lsb4, P32793
T1 sequence (P32793 402-468, looked up): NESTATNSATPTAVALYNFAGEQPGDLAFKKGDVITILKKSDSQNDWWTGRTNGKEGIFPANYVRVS

T2: Pin3, Q06449
T2 sequence (Q06449 53-122, looked up): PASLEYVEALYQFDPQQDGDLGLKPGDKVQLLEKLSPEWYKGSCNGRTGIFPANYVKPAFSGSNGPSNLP

T3: Fus1, P11710
T3 sequence (P11710 432-512, looked up): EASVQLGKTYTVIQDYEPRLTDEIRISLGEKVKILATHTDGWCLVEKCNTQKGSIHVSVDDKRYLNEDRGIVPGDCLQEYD

T4: Myo5, Q04439
T4 sequence (Q04439 1072-1160, looked up): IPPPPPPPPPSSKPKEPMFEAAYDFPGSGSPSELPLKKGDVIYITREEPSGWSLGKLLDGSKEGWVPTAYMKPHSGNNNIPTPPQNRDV

T5: Sla1-2, P32790
T5 sequence (P32790 60-140, looked up): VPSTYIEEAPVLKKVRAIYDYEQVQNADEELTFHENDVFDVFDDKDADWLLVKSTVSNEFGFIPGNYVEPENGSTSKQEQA

T6: Boi1, P38041
T6 sequence (P38041 1-86, looked up): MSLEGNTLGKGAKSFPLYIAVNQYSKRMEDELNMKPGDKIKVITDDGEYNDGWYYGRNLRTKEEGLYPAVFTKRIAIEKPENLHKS

T7: Lsb3, P43603
T7 sequence (P43603 385-451, looked up): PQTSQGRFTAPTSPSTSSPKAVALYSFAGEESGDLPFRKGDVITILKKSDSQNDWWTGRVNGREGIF

T8: Hof1, Q05080
T8 sequence (Q05080 590-669, looked up): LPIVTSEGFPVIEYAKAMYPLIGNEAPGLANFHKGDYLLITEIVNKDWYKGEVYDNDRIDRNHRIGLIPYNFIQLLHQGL

T9: Hse1, P38753
T9 sequence (P38753 208-285, looked up): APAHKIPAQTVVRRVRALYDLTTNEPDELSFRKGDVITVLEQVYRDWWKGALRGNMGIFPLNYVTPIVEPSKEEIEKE

T10: Bzz1-2, P38822
T10 sequence (P38822 568-633, looked up): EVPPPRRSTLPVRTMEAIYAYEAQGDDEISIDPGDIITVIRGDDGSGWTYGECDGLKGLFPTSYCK

T11: Lsb1, P53281
T11 sequence (P53281 45-122, looked up): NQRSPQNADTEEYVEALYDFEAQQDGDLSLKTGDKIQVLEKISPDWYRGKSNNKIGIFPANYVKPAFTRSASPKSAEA

T12: Bud14, P27637
T12 sequence (P27637 247-328, looked up): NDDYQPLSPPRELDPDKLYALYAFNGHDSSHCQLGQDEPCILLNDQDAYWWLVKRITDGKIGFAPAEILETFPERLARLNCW

T13: Cyk3, Q07533
T13 sequence (Q07533 1-83, looked up): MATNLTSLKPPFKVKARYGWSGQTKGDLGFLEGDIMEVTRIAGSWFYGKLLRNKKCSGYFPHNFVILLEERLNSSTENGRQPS

T14: Bzz1-1, P38822
T14 sequence (P38822 478-572, looked up): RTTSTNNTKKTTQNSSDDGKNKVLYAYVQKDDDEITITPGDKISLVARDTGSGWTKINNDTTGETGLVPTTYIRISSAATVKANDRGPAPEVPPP

T15: Sla1-3, P32790
T15 sequence (P32790 344-424, looked up): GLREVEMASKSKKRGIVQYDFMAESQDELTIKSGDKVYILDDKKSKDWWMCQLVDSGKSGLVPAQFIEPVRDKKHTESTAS

T16: Pex13, P80667
T16 sequence (P80667 295-386, looked up): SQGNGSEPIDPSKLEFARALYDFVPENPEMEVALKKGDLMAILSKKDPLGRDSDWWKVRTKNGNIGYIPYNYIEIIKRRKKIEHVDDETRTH

T17: Boi2, P39969
T17 sequence (P39969 32-116, looked up): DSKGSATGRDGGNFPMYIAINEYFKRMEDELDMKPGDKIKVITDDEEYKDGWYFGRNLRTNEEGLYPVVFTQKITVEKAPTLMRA

T18: Bbc1, P47068
T18 sequence (P47068 1-78, looked up): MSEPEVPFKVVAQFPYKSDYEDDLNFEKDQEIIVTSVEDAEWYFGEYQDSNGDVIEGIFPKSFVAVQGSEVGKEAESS

T19: Abp1, P15891
T19 sequence (P15891 535-592, looked up): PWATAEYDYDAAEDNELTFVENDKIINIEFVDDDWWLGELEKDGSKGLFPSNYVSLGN

T20: Nbp2, Q12163
T20 sequence (Q12163 103-180, looked up): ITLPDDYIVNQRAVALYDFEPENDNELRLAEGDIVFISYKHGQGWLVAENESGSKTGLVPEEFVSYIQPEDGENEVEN

T21: Cdc25, P04821
T21 sequence (P04821 50-136, looked up): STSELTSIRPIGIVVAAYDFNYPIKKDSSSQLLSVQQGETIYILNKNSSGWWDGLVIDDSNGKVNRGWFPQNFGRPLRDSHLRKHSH

B1: unnamed (peptide)
chain: ALRRRLPVTRSKINW
B2: unnamed (peptide)
chain: GRLRPKRIAPWHLIQ
B3: unnamed (peptide)
chain: IKKRNKIRLPSGSPE

Each binder was assayed against T1, Lsb4, P32793 (assay: SPOT array). Details: median of control spots 397.

Compared with B1, B2 is lower in SPOT intensity: 7 for the first, 0 for the second.

Binder B3 has an SPOT intensity of 6.

What follows are binders tested against Sho1, P40073 (assay: SPOT array). Details: median of control spots 1148.
Sequence of Sho1, P40073 (P40073 287-367): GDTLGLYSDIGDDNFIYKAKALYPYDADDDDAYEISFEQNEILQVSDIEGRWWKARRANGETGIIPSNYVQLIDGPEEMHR

First: B1
Second: B2
The SPOT intensity of the first is higher: 196 for the first, 83 for the second.

B3 showed an SPOT intensity of 122.

The binders below were run against T2, Pin3, Q06449 (assay: SPOT array). Details: median of control spots 2171.

Compared with B1, B2 is lower in SPOT intensity: 10 for the first, 5 for the second.

B3 showed an SPOT intensity of 4.

The binders below were run against T3, Fus1, P11710 (assay: SPOT array). Details: median of control spots 1200.

Going from B1 to B2, the SPOT intensity falls from 25 to 6.

For B3, the SPOT intensity was 52.

What follows are binders tested against GST (assay: SPOT array). Details: median of control spots 978.

Going from B1 to B2, the SPOT intensity falls from 2 to 0.

Binder B3 has an SPOT intensity of 3.

The binders below were run against T4, Myo5, Q04439 (assay: SPOT array). Details: median of control spots 471.

B1 and B2 are the same in SPOT intensity: 0 for the first, 0 for the second.

For B3, the SPOT intensity was 0.

Each binder was assayed against Myo3, P36006 (assay: SPOT array). Details: median of control spots 468.

Going from B1 to B2, the SPOT intensity falls from 10 to 0.

For B3, the SPOT intensity was 7.

Each binder was assayed against T5, Sla1-2, P32790 (assay: SPOT array). Details: median of control spots 712.

B1 and B2 are the same in SPOT intensity: 0 for the first, 0 for the second.

B3 was tested, and the SPOT intensity was 0.

These binders were tested against T6, Boi1, P38041 (assay: SPOT array). Details: median of control spots 1162.

First: B1
Second: B2
The SPOT intensity of the first is higher: 13 for the first, 2 for the second.

B3 gave an SPOT intensity of 5.

Each binder was assayed against T7, Lsb3, P43603 (assay: SPOT array). Details: median of control spots 406.

Compared with B1, B2 is lower in SPOT intensity: 4 for the first, 0 for the second.

Binder B3 has an SPOT intensity of 0.

These binders were tested against T8, Hof1, Q05080 (assay: SPOT array). Details: median of control spots 4086.

Going from B1 to B2, the SPOT intensity falls from 14 to 1.

B3 showed an SPOT intensity of 6.

Each binder was assayed against T9, Hse1, P38753 (assay: SPOT array). Details: median of control spots 1727.

First: B1
Second: B2
The SPOT intensity of the first is higher: 35 for the first, 9 for the second.

In the case of B3, the SPOT intensity is reported as 6.

Each binder was assayed against T10, Bzz1-2, P38822 (assay: SPOT array). Details: median of control spots 4538.

Going from B1 to B2, the SPOT intensity falls from 7 to 4.

In the case of B3, the SPOT intensity is reported as 4.

These binders were tested against T11, Lsb1, P53281 (assay: SPOT array). Details: median of control spots 388.

Compared with B1, B2 is lower in SPOT intensity: 46 for the first, 0 for the second.

With B3 the SPOT intensity was 104.

The binders below were run against T12, Bud14, P27637 (assay: SPOT array). Details: median of control spots 956.

First: B1
Second: B2
The SPOT intensity of the first is higher: 6 for the first, 3 for the second.

B3 showed an SPOT intensity of 10.

Each binder was assayed against T13, Cyk3, Q07533 (assay: SPOT array). Details: median of control spots 1451.

Compared with B1, B2 is lower in SPOT intensity: 2 for the first, 1 for the second.

With B3 the SPOT intensity was 9.

Each binder was assayed against T14, Bzz1-1, P38822 (assay: SPOT array). Details: median of control spots 4446.

B1 and B2 are the same in SPOT intensity: 0 for the first, 0 for the second.

B3 was tested, and the SPOT intensity was 2.

The binders below were run against T15, Sla1-3, P32790 (assay: SPOT array). Details: median of control spots 5475.

First: B1
Second: B2
The SPOT intensity of the first is higher: 73 for the first, 41 for the second.

With B3 the SPOT intensity was 43.

These binders were tested against T16, Pex13, P80667 (assay: SPOT array). Details: median of control spots 1341.

Going from B1 to B2, the SPOT intensity rises from 4 to 8.

With B3 the SPOT intensity was 2.

Each binder was assayed against T17, Boi2, P39969 (assay: SPOT array). Details: median of control spots 1161.

B1 and B2 are the same in SPOT intensity: 1 for the first, 1 for the second.

Binder B3 has an SPOT intensity of 3.

The binders below were run against T18, Bbc1, P47068 (assay: SPOT array). Details: median of control spots 796.

First: B1
Second: B2
The SPOT intensity of the first is higher: 245 for the first, 57 for the second.

With B3 the SPOT intensity was 101.

The binders below were run against Bem1-1, P29366 (assay: SPOT array). Details: median of control spots 4282.
Sequence of Bem1-1, P29366 (P29366 55-141): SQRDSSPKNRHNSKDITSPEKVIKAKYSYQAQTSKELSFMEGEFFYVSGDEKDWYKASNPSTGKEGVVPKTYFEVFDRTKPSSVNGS

B1 and B2 are the same in SPOT intensity: 0 for the first, 0 for the second.

B3 gave an SPOT intensity of 1.

What follows are binders tested against Bem1-2, P29366 (assay: SPOT array). Details: median of control spots 4347.
Sequence of Bem1-2, P29366 (P29366 139-227): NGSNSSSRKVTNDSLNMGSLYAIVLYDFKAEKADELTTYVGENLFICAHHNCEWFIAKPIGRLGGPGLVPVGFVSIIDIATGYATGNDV

First: B1
Second: B2
The SPOT intensity of the first is higher: 7 for the first, 6 for the second.

B3 was tested, and the SPOT intensity was 0.

These binders were tested against T19, Abp1, P15891 (assay: SPOT array). Details: median of control spots 935.

First: B1
Second: B2
The SPOT intensity of the first is higher: 134 for the first, 25 for the second.

With B3 the SPOT intensity was 136.

These binders were tested against T20, Nbp2, Q12163 (assay: SPOT array). Details: median of control spots 357.

Compared with B1, B2 is lower in SPOT intensity: 149 for the first, 10 for the second.

Work on B3 yielded an SPOT intensity of 24.

What follows are binders tested against Rvs167, P39743 (assay: SPOT array). Details: median of control spots 2707.
Sequence of Rvs167, P39743 (P39743 419-482): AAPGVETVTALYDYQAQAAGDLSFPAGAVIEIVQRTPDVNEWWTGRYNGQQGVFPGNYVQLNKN

B1 and B2 are the same in SPOT intensity: 8 for the first, 8 for the second.

B3 showed an SPOT intensity of 4.

These binders were tested against T21, Cdc25, P04821 (assay: SPOT array). Details: median of control spots 969.

First: B1
Second: B2
The SPOT intensity of the first is higher: 46 for the first, 0 for the second.

B3 was tested, and the SPOT intensity was 18.
